Measured values from patent US20260015399A1 (Boehringer Ingelheim, published 2026).
*1 amine or outer side, *2 acyl side, *3 side chain or, on linkers, in order; H or OH if unused. Side-chain parts run from the residue outwards. The star is where a group is joined. C18 diacid = O=C(O)CCCCCCCCCCCCCCCCC(=O)*; γGlu = O=C(O)[C@H](CCC(=O)[*:2])N[*:1]; Isovaleryl = CC(C)CC(=O)*; Ahx = NCCCCCC(=O)O

Columns and labels:
human NPY2 receptor [1] = target: T1, human NPY2 receptor (human, UniProt P49146 1-381); test: RLB, apparent Ki of filtrate after incubation at pH 8.1-8.2 (assumed 10 mg/ml)
T1 construct: whole, on cells; also called hNPY2-R; hNPY2R
T1 sequence (looked up): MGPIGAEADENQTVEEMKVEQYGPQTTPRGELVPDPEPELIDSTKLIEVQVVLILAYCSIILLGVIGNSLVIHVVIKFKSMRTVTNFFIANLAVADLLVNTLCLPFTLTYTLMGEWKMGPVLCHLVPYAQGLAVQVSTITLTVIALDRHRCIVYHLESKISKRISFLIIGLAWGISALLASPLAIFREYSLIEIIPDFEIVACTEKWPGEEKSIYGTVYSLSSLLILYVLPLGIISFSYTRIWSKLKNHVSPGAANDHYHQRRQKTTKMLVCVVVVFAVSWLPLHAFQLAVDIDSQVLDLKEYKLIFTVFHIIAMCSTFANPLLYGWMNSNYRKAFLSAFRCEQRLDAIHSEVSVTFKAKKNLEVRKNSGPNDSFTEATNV
Experimental: (§1) The filtration RLB assay was carried out in 96-well plates in a final volume of 100 μl per well. Freeze-dried test peptides were dissolved in 100% dimethyl sulfoxide (DMSO) to stock solutions of 1 mM and serial dilutions were performed in assay buffer (50 mM HEPES, 5 mM MgCl₂, 1 mM CaCl₂), pH 7.4) containing 0.2% ovalbumin. […] Next, 80 μL membranes (HTS066M, ChemiSCREEN™ Human Neuropeptide Y2 Receptor Membrane Preparation, CHEMICON) were added to each well to give a final protein concentration of 0.5 μg/well. The plates were sealed and incubated at room temperature for 2 hours in a plate shaker set at 400 rpm. The incubation was stopped by vacuum filtration onto 0.5% polyethylene amine (PEI) presoaked GF/C filters using a 96-well FilterMate™ harvester (Perkin Elmer) followed by four washes with 300 μl/well ice-cold wash buffer (50 mM HEPES, 500 mM NaCl, pH7.4). Filter plates were then dried for 60 min at room temperature and the bottom of the plates was sealed with backing tape UniFilter-96. Finally, 50 μl/well scintillation counter cocktail (Microscint20, Packard) was added and the radioactivity was counted in the Packard TopCount NXT scintillation counter. IC₅₀ values (the half maximal inhibitory concentration of the agonist) were calculated by nonlinear regression analysis of sigmoidal dose-response curves.
The peptide was (partially) dissolved by shaking the filter unit horizontally at approx. 400 rpm for 2 hours at room temperature. The sample was filtered to remove any insoluble particles.

human NPY2 receptor [2] = target: T1, human NPY2 receptor; test: cell-based or functional assay
human NPY4 receptor = human NPY4 receptor (human, UniProt P50391 1-375); test: cell-based or functional assay
human NPY1 receptor = target: T2, human NPY1 receptor (human, UniProt P25929 1-384); test: cell-based or functional assay
T2 sequence (looked up): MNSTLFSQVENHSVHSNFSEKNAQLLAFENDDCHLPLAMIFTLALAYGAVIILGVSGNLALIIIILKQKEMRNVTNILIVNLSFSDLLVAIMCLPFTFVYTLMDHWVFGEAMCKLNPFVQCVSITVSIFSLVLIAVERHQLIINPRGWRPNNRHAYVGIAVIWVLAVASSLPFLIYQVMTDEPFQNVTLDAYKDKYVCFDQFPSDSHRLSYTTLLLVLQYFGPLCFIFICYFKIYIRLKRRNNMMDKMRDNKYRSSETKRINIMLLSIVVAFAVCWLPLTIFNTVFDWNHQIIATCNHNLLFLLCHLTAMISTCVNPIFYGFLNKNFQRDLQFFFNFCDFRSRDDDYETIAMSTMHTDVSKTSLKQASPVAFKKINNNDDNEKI

human NPY5 receptor = target: T3, human NPY5 receptor (human, UniProt Q15761 1-445); test: cell-based or functional assay
T3 sequence (looked up): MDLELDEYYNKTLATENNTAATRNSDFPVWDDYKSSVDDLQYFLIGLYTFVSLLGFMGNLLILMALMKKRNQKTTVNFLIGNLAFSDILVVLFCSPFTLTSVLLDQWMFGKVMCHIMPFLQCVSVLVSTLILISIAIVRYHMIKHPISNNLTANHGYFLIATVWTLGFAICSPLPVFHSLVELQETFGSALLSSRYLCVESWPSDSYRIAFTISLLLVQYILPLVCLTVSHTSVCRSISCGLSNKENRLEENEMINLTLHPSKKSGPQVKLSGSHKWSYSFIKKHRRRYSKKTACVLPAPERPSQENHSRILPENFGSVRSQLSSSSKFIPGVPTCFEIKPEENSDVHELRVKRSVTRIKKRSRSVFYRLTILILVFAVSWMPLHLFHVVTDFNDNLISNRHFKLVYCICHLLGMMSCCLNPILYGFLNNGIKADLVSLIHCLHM

human NPY2 receptor [3] = target: T1, human NPY2 receptor; test: RLB: displacement of 125I-PYY(1-36) from hNPY2R membranes
human NPY2 receptor [4] = target: T1, human NPY2 receptor; test: RLB, apparent Ki of filtrate after incubation at pH 7.1-7.2 (assumed 10 mg/ml)
Experimental: as §1, with “curves. […]” for “curves.”

human NPY2 receptor [5] = target: T1, human NPY2 receptor; test: RLB (125I-PYY(1-36) displacement, hNPY2R membranes), peptide from DMSO stock
Experimental: as §1, with “curves. […]” for “curves.”

Sequence of human NPY4 receptor (P50391 whole entry): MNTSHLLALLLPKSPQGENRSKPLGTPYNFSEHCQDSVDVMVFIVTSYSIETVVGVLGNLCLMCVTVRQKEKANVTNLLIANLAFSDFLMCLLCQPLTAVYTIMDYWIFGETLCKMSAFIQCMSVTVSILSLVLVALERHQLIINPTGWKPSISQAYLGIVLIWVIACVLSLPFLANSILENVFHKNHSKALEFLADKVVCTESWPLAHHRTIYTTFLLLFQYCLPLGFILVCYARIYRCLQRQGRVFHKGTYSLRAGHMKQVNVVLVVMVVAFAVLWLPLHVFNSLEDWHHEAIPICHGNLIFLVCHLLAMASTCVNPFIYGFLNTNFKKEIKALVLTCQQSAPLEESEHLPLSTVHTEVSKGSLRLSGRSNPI

Row | Binder | Ki (human NPY2 receptor [1]) [nM] | EC50, HTRF cAMP Gi assay (human NPY2 receptor [2]) [nM] | EC50, HTRF cAMP Gi assay (human NPY4 receptor) [nM] | EC50, HTRF cAMP Gi assay (human NPY1 receptor) [nM] | EC50, HTRF cAMP Gi assay (human NPY5 receptor) [nM] | Ki (human NPY2 receptor [3]) [nM] | Ki (human NPY2 receptor [4]) [nM] | Ki (human NPY2 receptor [5]) [nM]
1 | Isovaleryl-APEK([Ahx-γGlu-C18 diacid])PEADATPEEIQRYYVSLRHYYNWLTRQRY-NH2 [Compound 7] | 3.1 | 0.143 | > 5000 | > 5000 | > 5000 | 1.04 |  | 
2 | Isovaleryl-APEK([Ahx-γGlu-C18 diacid])PEEEASPEEIQRYYVSLRHYYNWLTRQRY-NH2 (SMILES CC[C@H](C)[C@H](NC(=O)[C@H](CCC(=O)O)NC(=O)[C@H](CCC(=O)O)NC(=O)[C@@H]1CCCN1C(=O)[C@H](CO)NC(=O)[C@H](C)NC(=O)[C@H](CCC(=O)O)NC(=O)[C@H](CCC(=O)O)NC(=O)[C@H](CCC(=O)O)NC(=O)[C@@H]1CCCN1C(=O)[C@H](CCCCNC(=O)CCCCCNC(=O)CC[C@H](NC(=O)CCCCCCCCCCCCCCCCC(=O)O)C(=O)O)NC(=O)[C@H](CCC(=O)O)NC(=O)[C@@H]1CCCN1C(=O)[C@H](C)NC(=O)CC(C)C)C(=O)N[C@@H](CCC(N)=O)C(=O)N[C@@H](CCCNC(=N)N)C(=O)N[C@@H](Cc1ccc(O)cc1)C(=O)N[C@@H](Cc1ccc(O)cc1)C(=O)N[C@H](C(=O)N[C@@H](CO)C(=O)N[C@@H](CC(C)C)C(=O)N[C@@H](CCCNC(=N)N)C(=O)N[C@@H](Cc1c[nH]cn1)C(=O)N[C@@H](Cc1ccc(O)cc1)C(=O)N[C@@H](Cc1ccc(O)cc1)C(=O)N[C@@H](CC(N)=O)C(=O)N[C@@H](Cc1c[nH]c2ccccc12)C(=O)N[C@@H](CC(C)C)C(=O)N[C@H](C(=O)N[C@@H](CCCNC(=N)N)C(=O)N[C@@H](CCC(N)=O)C(=O)N[C@@H](CCCNC(=N)N)C(=O)N[C@@H](Cc1ccc(O)cc1)C(N)=O)[C@@H](C)O)C(C)C) [Compound 193] |  | 0.331 | > 5000 | > 5000 | > 5000 | 3.42 |  | 
3 | Isovaleryl-APAK([Ahx-γGlu-C18 diacid])PEEDASPEEIQRYYISLRHYYNWLTRQRY-NH2 (SMILES CC[C@H](C)[C@H](NC(=O)[C@H](Cc1ccc(O)cc1)NC(=O)[C@H](Cc1ccc(O)cc1)NC(=O)[C@H](CCCNC(=N)N)NC(=O)[C@H](CCC(N)=O)NC(=O)[C@@H](NC(=O)[C@H](CCC(=O)O)NC(=O)[C@H](CCC(=O)O)NC(=O)[C@@H]1CCCN1C(=O)[C@H](CO)NC(=O)[C@H](C)NC(=O)[C@H](CC(=O)O)NC(=O)[C@H](CCC(=O)O)NC(=O)[C@H](CCC(=O)O)NC(=O)[C@@H]1CCCN1C(=O)[C@H](CCCCNC(=O)CCCCCNC(=O)CC[C@H](NC(=O)CCCCCCCCCCCCCCCCC(=O)O)C(=O)O)NC(=O)[C@H](C)NC(=O)[C@@H]1CCCN1C(=O)[C@H](C)NC(=O)CC(C)C)[C@@H](C)CC)C(=O)N[C@@H](CO)C(=O)N[C@@H](CC(C)C)C(=O)N[C@@H](CCCNC(=N)N)C(=O)N[C@@H](Cc1c[nH]cn1)C(=O)N[C@@H](Cc1ccc(O)cc1)C(=O)N[C@@H](Cc1ccc(O)cc1)C(=O)N[C@@H](CC(N)=O)C(=O)N[C@@H](Cc1c[nH]c2ccccc12)C(=O)N[C@@H](CC(C)C)C(=O)N[C@H](C(=O)N[C@@H](CCCNC(=N)N)C(=O)N[C@@H](CCC(N)=O)C(=O)N[C@@H](CCCNC(=N)N)C(=O)N[C@@H](Cc1ccc(O)cc1)C(N)=O)[C@@H](C)O) [Compound 195] |  | 0.197 | > 5000 | > 5000 | > 5000 | 0.78 |  | 
4 | Isovaleryl-APEK([Ahx-γGlu-C18 diacid])PEADASPEEIQRYYIALRHYYNWLTRQRY-NH2 [Compound 40] | 3.8 | 0.122 | > 5000 | > 5000 | > 5000 | 0.67 | 7.3 | 
5 | Isovaleryl-APEK([Ahx-γGlu-C18 diacid])PEADASPEELQRYYVALRHYYNWLTRQRY-NH2 [Compound 163] | 4.9 | 0.13 | > 5000 | > 5000 | > 5000 | 0.67 |  | 
6 | Isovaleryl-APAK([Ahx-γGlu-C18 diacid])PEEDASPEEIQRYYVSLRHYYNWLTRQRY-NH2 [Compound 63] |  | 0.109 | > 5000 | > 5000 | > 5000 | 0.93 |  | 6.6
